These results are taken from patent US20150139996A1.

In test [1] the target is IgG1 heavy chain with CH3 construct 72 (L351D, R355D) (human) [IgG part: P01857]. In words: SDS-PAGE of protein A-purified supernatant; construct expressed alone.
Test [2] has the same target. Put plainly: native MS; combination 8 co-expressed (A: VH MF1337, B: VH MF1122).

Regarding “IgG1 heavy chain with CH3 construct 72 (L351D, R355D) (from UniProt P01857-1)”, the % IgG in test [1] came to 100%. Further, in test [2], the % BB found turned out to be 8%.
